Reference: publication PMC3879576

Tests used:
[1] = target: Bet v 1a Y5C mutant (birch) (UniProt P15494); assay: not stated; analysis of purified Bet v 1a Y5C; method of the analysis not named; similar redox sensitivity as the dimer of the WT preparation
[2] = target: Bet v 1a Y5C mutant (birch) (UniProt P15494); assay: SEC; Superdex 75 size exclusion chromatography (gel filtration) separating monomeric and dimeric forms
[3] = target: dimeric Bet v 1a purified from the WT Bet v 1a preparation, with cysteine incorporated at position 5 instead of the encoded tyrosine (birch) (UniProt P15494); assay: as above

percent dimerization [1] | stoichiometry N [2] | stoichiometry N [3] | Substance
90% | 2 |  | Bet v 1a Y5C mutant (from UniProt P15494 1-160) (natural protein)
 |  | 2 | dimeric Bet v 1a purified from the WT Bet v 1a preparation, with cysteine incorporated at position 5 instead of the encoded tyrosine (from UniProt P15494 1-160) (natural protein)
